Paper PMC12085581, “Auricular malformations are driven by copy number variations in a hierarchical enhancer cluster and a dominant enhancer recapitulates human pathogenesis”

Target: T1, MEIS1 (human, UniProt O00470 1-390)
T1 sequence: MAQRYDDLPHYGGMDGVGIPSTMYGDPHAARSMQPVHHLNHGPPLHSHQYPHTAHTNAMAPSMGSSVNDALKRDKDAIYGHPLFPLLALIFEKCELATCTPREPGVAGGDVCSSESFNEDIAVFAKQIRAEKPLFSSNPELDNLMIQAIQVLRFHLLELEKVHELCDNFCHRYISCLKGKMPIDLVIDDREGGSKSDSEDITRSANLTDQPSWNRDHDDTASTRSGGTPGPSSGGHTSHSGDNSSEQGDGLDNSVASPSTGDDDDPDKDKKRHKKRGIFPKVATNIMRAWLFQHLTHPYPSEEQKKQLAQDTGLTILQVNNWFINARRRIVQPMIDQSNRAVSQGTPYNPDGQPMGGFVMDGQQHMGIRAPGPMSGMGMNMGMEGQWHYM
Test: EMSA; EMSA: LightShift Chemiluminescent EMSA kit per manufacturer (buffer not given); protein stock in 50 mM Tris, 200 mM NaCl, 10 mM 2-mercaptoethanol, 10% glycerol, pH 7.5. Pull-down: streptavidin beads, 1 h at 4 C, PBS washes
Conditions: protein: recombinant; tags: His6-MBP-TEV, tag removed by TEV protease; label: 5' biotin on both strands; blunt

B1: probe1 (hEC1 MEIS1 site) (dsDNA)
DNA 1: GGAAATGCGGCCCATCAATCATAAACTGATTACAAATTCGTCA
DNA 2: TGACGAATTTGTAATCAGTTTATGATTGATGGGCCGCATTTCC
Does B1 bind?
Result: binds
